# Measurements from patent publication US20230094463A1 (TRUEBINDING, published 2023).
# Substitutions are numbered along the chain they refer to. In names and notes the source's numbering stands.
# B1: F847C.10B9 (antibody, V domains shown)
# VH: QIQLVQSGPEVKKPGETVKISCKASGYIFTNYGMNWVKQAPGKGLKWMGWINTYTGEPTYTDDFKGRFAFSLETSASTAYLQINNLKNEDTATYFCAKFGNYVGAMDYWGQGTSVTVSS
# VL: DIRMTQSPSSLSASLGDTITITCHASQNINVWLSWYQQKPGNIPKLLIYKASNLHTGVPSRFSGSGSGTGFTLTISSLQPEDIATYYCQQGQSYPYTFGGGTKLELK
# notes: also called 847.10B9
# B2: F847C.12F12 (antibody, V domains shown)
# VH: B1 VH with V11L, I28T, T61V, Q82R
# VL: B1 VL with R3Q, M4V, T5I
# notes: anti-Gal3 antibody; also called 847.12F12; 84712F12
# B3: F847C.26F5 (antibody, V domains shown)
# VH: B1 VH
# VL: B1 VL with D1E, R3K, T5N
# notes: also called 847.26F5
# B4: F847C.11B1 (antibody, V domains shown)
# VH: EVQLQQSGPELVKPGASVKISCKASGNTFTDHNMHWVKQSHGKSLEWIGYIYPYNGGTGYNQKFKSKATLTVDNSSSTVYMELRSLTSEDSAVYYCARGEYDYLAWFAYWGQGTLVTVSA
# VL: EIVLTQSPASLSVTTGEKVTIRCITSIDIDDDMNWYQQKPGEPPKLLISEGNTLRPGVPSRFSSSGYGTDFVFTIENTLSEDVADYYCLQSDNKPLTFGAGTKLELKR
# notes: anti-Gal3 antibody; also called 847.11B1
# B5: F846C.1B2 (antibody, V domains shown)
# VH: QIQLVQSGPELKKPGETVKISCKASGYTFTNYGMNWVKQAPGKGLKWMGWINTYTGEPSYADDFKGRFAFSLETSASTAYLQINNLKNEDMATYFCARWGGYAGDYYAMDFWGQGTSVTVSS
# VL: NIWLTQSPSSLAVSAGEMVTMTCKSSQSVLYSSNQKNYLAWYQQKPGQSPKLLIYWASTRESGVPDRFTGSGSGTDFSLTISSVQAEDLAVYYCHQYLSSLTFGAGTKLELK
# notes: also called 846.1B2
# B6: F846C.2H3 (antibody, V domains shown)
# VH: B5 VH with A103D, F111Y
# VL: B5 VL with W3M, L4M, M18K, T22S, S78T, A86P
# notes: also called 846.2H3
# B7: F846C.1H12 (antibody, V domains shown)
# VH: B5 VH with Y32F, M91I, F111Y
# VL: NIMMTQSPSSLAVSAGQKVTMSCKSSQSVLYSSSQKNYLAWYQQKPGQSPKLLIYWASTRESGVPDRFSGSGSGTDFTLTISSVQPEDLAVYYCHQYLSSLTFGAGTKLELKR
# notes: also called 846.1H12
# B8: F846TC.16B5 (antibody, V domains shown)
# VH: B5 VH with S59A, A103D, F111Y
# VL: B7 VL with Q17E, S34N, S69T, P86A
# notes: also called 846T.16B5
# B9: F846TC.14A2 (antibody, V domains shown)
# VH: QIQLVQSGPELKKPGETVKISCKASGYTFTNYGMNWVKQAPGKGLKWMGWINTYTGEPTYAGDLKGRFAFSLETSASTAYLQINNLKNEDTATYFCVRYTMDYWGQGTSVTVSS
# VL: QAVVTQESALTTSPGETVTLTCRSSTGAVTTSNYANWVQEKPDHLFTGLIGGINNRVPGVPARFSGSLIGDKAALTITGAQTEDEAIYFCALWYSNHWVFGGGTKLTVL
# notes: anti-Gal3 antibody; also called 846T.14A2
# B10: F847.14H4 (847.14H4) (antibody, V domains shown)
# VH: QIQLVQSGPELTKPGETVKISCKASGYTFTDYGMNWVRQAPGETLKWMGWINTYTGEPTYADDFKGRFAFSLESSASTAYLQINNLKNEDVATYFCARYPMDYWGQGTSVTVSS
# VL: B9 VL with I53T, V57A, W98L
# notes: anti-Gal3 antibody
# B11: 4A11.2B5 (antibody, V domains shown)
# VH: QVQLQQSGPELVKPGASVKISCKASGYSFTNYYIHWVKQRPGQGLEWIGWIYPGSGNTNYNEKFKGKATLTADTSSSTTNMQLSSLTSEDSAVYYCSTAPGGFDVWGSGTTVTVSS
# VL: DIVMTQAAFSNPVTLGTSASISCRSSKSLLHSDGITYLYWYLQRPGQSPQLLIYRMSNLASGVPDRFSGSGSGTDFTLRISRVEAEDVGVYYCAQMLEFPLTFGAGTKLELK
# B12: 24D12.2H9 (antibody, V domains shown)
# VH: QVQLKQSGPGLVQPSQSLSITCTVSGFSLTSYGVHWVRQAPGKGLEWLGVIWSGGSTDYNAAFMSRLSISKDNSKSQVFFKMNSLQADDTAIYYCAKSPDGYDVAWFGYWGQGTLVTVSA
# VL: DIVMTQSHKFMSTSVGDRVSITCKASQDVRTAVAWYQQKPGQSPKLLIYWASTRHTGVPDRFTGSGSGTDFTLTLSNVQSEDLADYFCQQYSSYPWTFGGGTKLEIK
# B13: 7D8.2D8 (antibody, V domains shown)
# VH: EVQLVESGGGLVKPGGSLKLSCAASGFTFSSYAMSWVRQTPEKRLEWVATISDGGIYTYYPDNVKGRFTISRDNAKNNLFLQMSHLKSEDTAMYYCVRDGGYWGQGTTLTVSS
# VL: DVLMTQTPLSLPVSLGDQASISCRSSQSIVHSNGNTYLEWYLQKPGQSPKLLIYKVSNRFSGVPDRFSGSGSGTDFTLKISRVEAEDLGVYYCFQGSHVPLTFGAGTKLELK
# B14: 15F10.2D6 (antibody, V domains shown)
# VH: B13 VH with T28A, I56V, P61T, N63H, K76E, N77D, F80Y
# VL: B13 VL with S32N, A105G
# B15: 3B11.2G2 (antibody, V domains shown)
# VH: QIQLVQSGPELKKPGETVKISCKTSGYKFKTYVMSWVKQAPGKALKWMGWINTYSGVPTYADDFKGRFAFSLETSASTAYLEIINLKNEDTATYFCARDGNYGDPMDYWGQGTSVTVSS
# VL: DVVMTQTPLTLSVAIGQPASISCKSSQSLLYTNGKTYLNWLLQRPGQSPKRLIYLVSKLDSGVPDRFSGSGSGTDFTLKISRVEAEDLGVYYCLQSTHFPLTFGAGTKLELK
# B16: 4G2.2G6 (antibody, V domains shown)
# VH: QIQLVQSGPDLKKPGETVKISCKASGYTFTTYVMSWVKQAPGKDLKWMGWINTHSGVPTYADDFKGRFDFSLETSANTAFLQINNLKNEDTATYFCTRDGNDGDAMDNWGQGTSVTVSS
# VL: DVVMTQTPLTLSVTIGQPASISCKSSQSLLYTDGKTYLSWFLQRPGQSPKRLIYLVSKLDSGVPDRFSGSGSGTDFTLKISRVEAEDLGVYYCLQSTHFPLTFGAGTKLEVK
# B17: 13H12.2F8 (antibody, V domains shown)
# VH: QIQLVQSGPELKKPGETVKISCKASGYTFTTYGMSWVKQAPGKGLKWMGWINTYSGVPTYADDFKGRFAFSLETSASTAYLQINNLKNEDTATYFCAVPYEYDGAYWGQGTLVTVSA
# VL: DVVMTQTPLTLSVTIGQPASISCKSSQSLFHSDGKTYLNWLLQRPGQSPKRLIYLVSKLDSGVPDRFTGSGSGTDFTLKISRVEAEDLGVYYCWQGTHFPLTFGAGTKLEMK
# B18: 19D9.2E5 (antibody, V domains shown)
# VH: B17 VH with S35G, A76T, T91M, V98T
# VL: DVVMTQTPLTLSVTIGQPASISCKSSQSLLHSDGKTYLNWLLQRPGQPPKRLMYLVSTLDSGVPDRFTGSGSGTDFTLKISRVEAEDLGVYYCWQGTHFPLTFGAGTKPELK
# B19: F847C.4B10 (antibody, V domains shown)
# VH: EVQLVETGGGLVKPGGSLKLSCAASGFTFSSYAMSWVRQTPEKRLEWVASISSGGSTYYPDSVKGRFTISRDNARNILYLQMSSLRSEDTAMYYCTRFTTVVEMDYWGQGTSVTVSS
# VL: QAVVTQESALTTSPGETVTLTCRSSTGAVTTSNYANWVQEKPDHLFTGLIGGTNNRAPGVPARFSGSLIGDKAALTITGAQTEDEAIYFCALWYSNHLVFGGGTKLTVLR
# notes: anti-Gal3 antibody; also called 847.4B10
# B20: F846C.1H5 (antibody, V domains shown)
# VH: EVQLLESGGGLVKPGGSLKLSCAASGFTFSSYAMSWVRQTPEKRLEWVASISSGGDTYYPDSVKGRFTISRDNARNILYLQMSSLRSEDTAMYYCASYGNSLFDYWGQGTTLTVSS
# VL: DVVMTQTPLSLPVSLGDQASISCRSSQSLVHNSGNTYLHWYLQRPGQSPNLLIYKVSNRFSGVPDRFSGSGSGTDFTLKISRVAAEDLGVYFCSQSTHVPPTFGGGTKLEIK
# notes: anti-Gal3 antibody; also called 846.1H5
# Target: T1, Human GAL3 protein (TrueBinding, QCB200349 / QCB200352; R&D Systems, 8259-GA) (human, UniProt P17931 2-250)
# T1 construct: also called human galectin-3
# Experiment: blocking ELISA (GAL3 coated; antibody + biotinylated ITGb3)
# T1 sequence (P17931 2-250 limits assumed): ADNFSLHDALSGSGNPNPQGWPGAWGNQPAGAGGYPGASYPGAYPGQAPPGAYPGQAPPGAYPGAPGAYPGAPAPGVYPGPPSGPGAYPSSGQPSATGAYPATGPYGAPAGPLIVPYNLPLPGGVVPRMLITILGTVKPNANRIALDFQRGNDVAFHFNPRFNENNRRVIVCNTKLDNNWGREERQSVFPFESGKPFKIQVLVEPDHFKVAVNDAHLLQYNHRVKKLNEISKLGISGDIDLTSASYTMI
row,Binder,percent blockade of GAL3-ITGb3 interaction [%]
1,B1,> 90
2,B2,> 90
3,B3,> 90
4,B4,< 10
5,B5,> 90
6,B6,> 90
7,B7,> 90
8,B8,> 90
9,B9,> 90
10,B10,< 10

# Target: T2, Human Galectin-3 protein (Acro Biosystems, GA3-H5129) (human, UniProt P17931 2-250)
# T2 construct: Bought protein; also called Gal3-ECD-His; Gal3-His; not shown: linker-spaced 6-histidine tag
# Experiment: SPR (Biacore T200), antibody captured, Galectin-3 as analyte
# T2 sequence (P17931 2-250): as the sequence (P17931 2-250 limits assumed) above
row,Binder,Kd [nM]
1,B11,5.22
2,B12,4.13
3,B13,2.49
4,B14,2.06
5,B15,< 1
6,B16,< 1
7,B17,6.07
8,B18,< 1

# Target: T2, Human Galectin-3 protein (Acro …)
# Experiment: blocking ELISA (Gal3 coated; antibody 3 µg/mL + INSR)
Binder,"Gal3-INSR binding remaining, % of unblocked sample [%]",reduction of Gal3-INSR binding (%)
B11,< 5,
B12,,≤ 30
B15,< 5,
B16,< 5,
B18,< 5,

# Target: T1, Human GAL3 protein (TrueBinding, …)
# Experiment: blocking ELISA (GAL3 coated; antibody + biotinylated ITGaV)
row,Binder,percent blockade of GAL3-ITGaV interaction [%]
1,B1,> 90
2,B2,> 90
3,B3,> 90
4,B4,< 30
5,B5,> 90
6,B6,> 90
7,B8,> 90
8,B9,> 90
9,B10,< 30

# Target: T1, Human GAL3 protein (TrueBinding, …)
# Experiment: blocking ELISA (GAL3 coated; antibody + biotinylated ITGa3)
row,Binder,percent blockade of GAL3-ITGa3 interaction [%]
1,B19,> 90
2,B1,> 90
3,B2,> 90
4,B3,> 90
5,B4,< 35
6,B5,> 90
7,B6,> 90
8,B7,> 90
9,B8,> 90
10,B9,> 90
11,B10,< 35
12,B20,> 90

# Target: T2, Human Galectin-3 protein (Acro …)
# Experiment: ELISA, blocking of INSR binding to coated Gal3
row,Binder,Gal3-INSR Blocking @ 3 µg/mL [%]
1,B11,100
2,B12,22
3,B13,75
4,B14,82
5,B15,96
6,B16,100
7,B17,97
8,B18,100
